This data set is described as follows: label from the status in PepcDB records.
For the sequence “MAAKLCIPSSSFSHRTNDSITSSSSSYSSLLALPQFFCPPSPLGFPQFKLHAKLGGGDGEVKPKDKKKFITKDEEPEQYWQSVGEREGENPMKTPLPYIIIFGMSTPFVILAIAFANGWIKVPIR”, the protein production entry is listed as “failed”.
Under “PNVVKMNKPFISLCPEITRAHALTLMDWLEDEHVTRHLSDSRHVSRFIEQVIDRVQLPVLTHLFNQGGRFFMAYDRHDVPVGFVRLVKTGSDCEIVLVIGNRDNWGRKLGASAIREGMKLAFFEMRAARLIAKVHPDNERSLNAFLRCGFVLE” stands “not failed”.
Under “MSLTFSILAHDPETGAIGGAAATGSLCVGGWVLRGDLNAGMSASQGAAPSTFWGEEVLQHLRDGSHPEDAVNHVTSQDSGRAYRQLAAMDLLGNAAAFTGSENQDIKGSVTFASGIASGNMLGDNSVLGAMTEAFVASDLTFERRLLAALIAAEGAGSDFRGLLSAAMLVLHPDRPPVTLRIDYHPDNPIGALEQLYQKATTGDYADWARQVPVLSDKERILDEGHHHHHH” stands “not failed”; under “MEGNKSLVVAHAQRCVVLRFLKFPPNKKKTSEEILQHLQNIVDFGKNVMKDFLGENYVHCGEVVQLPLEFVKQLCLKIQCERPESRCDKDLDTFSGYAMCLPNLTRLQTFHFAEHRPILCVEIKPKCGFIPFSNDVTHEMKHKVCRYCMHQHLKVATGKWKKISKYCPLDLYSGNKQRMHFALRSLLQETQNNLRIFKNGELIYGCGDARSPVADLKELAHHLKPFFFPSNGLASGPHCTKAVIRELVHVITRVLLSSSEKARAGALRLGLQGPRVCEASPFSRSLHNQGKNTSEHSGLPKGCLLYKTLQVQMLDQLDIEGLYPLYKRVEQYLEEFPEERKTLQIDGPYDEVFYQKLLDLSTEDDGTVAFALTKVQQYRVAMTAKDCSIMIALSPCLEHHHHHH”, “failed”.
Under “MMIGENKNRPHPTIHIPQWDQINDPTATISSPFSSVNLNSVNDYPHSPSPYLDSFASLFRYLPSNELTNDSDSSSGDESSPLTDSFSSDEFRIYEFKIRRCARGRSHDWTECPFAHPGEKARRRDPRKFHYSGTACPEFRKGSCRRGDSCEFSHGVFECWLHPSRYRTQPCKDGTSCRRRICFFAHTTEQLRVLPCSLDPDLGFFSGLATSPTSILVSPSFSPPSESPPLSPSTGELIASMRKMQLNGGGCSWSSPMRSAVRLPFSSSLRPIQAATWPRIREFEIEEAPAMEFVESGKELRAEMYARLSRENSLG” stands “failed”.
For “MSDPYERVNGGRLAFKGGDLATRKSIEKKKKKKQKKNKEKLDGVEDGAKTAPDGSPPPAAAAGDEDIYSIDAAKKKKYDDLFPVEAKKFGYIPKANFESREDALDDRVKKKADRYCK”, the protein production result is “failed”.
Under “MNYSSRQQPKRNWLRKVDWILVLVISLLALTSVILISSAMGGGQYSANFSIRQIIYYIFGAIIAFLIMIISPKKIKNNTYILYSIFCVLLIGLLILPETSITPIINGAKSWYSFGPISIQPSEFMKIILILALAKTISKHNQFTFNKSFQSDLMLFFKILGVSIIPMALILLQNDLGTTLVLCAIIAGVMLVSGITWRILAPLFIVAFVSGSSIILAIIYKPSLIENLLGIKMYQMGRINSWLDPYSYSSGDGYHLTESLKAIGSGQLLGKGYNHGEVYIPENHTDFIFSVIGEEMGFIGSVLLILLFLFLIFHLIRLASKIDSQFNKVFIIGYVSLIVFHVLQNIGMTVQLLPITGIPLPFISYGGSSLWSLMTGIGVVLSIYYHEPQRYEITTLSKKSNTI” stands “failed”.
In the case of “MALPPYDPNFTLAFSYGRRDNVFENDPEHDESASAAIVAVELISSARLALKLDSVRTEYSAQYLVDKAGSRNLRRRRKLTVKDCLNFALKKGGIPRAEDWPPLGSESKTPSSYEPALVSMKGEVIEPKDMDEVPELLVHQSAVGAKLHVFTPHIELQQDVSAIAYARYVGLRDGIVVGTEKIQGKSMAIVKVWYKKKFVVVKVALSRMFYLAGVGPSVLLVDFCVPRLSID” it was “failed”; in that of “MPVKKLKQFLDSHKIKYLSIAHSPAYTAQEIAASAHVSGKQLAKTVIIKMDGRLAMVVLPASDHITFMKLKEAIGTSDLELATESEFEGKFAECDVGAMPPFGNLYGLPVLVSTKLSAQDNILFNAGSHSELMQLSFGDFEKLVKPTLVTL”, “not failed”.
Consider “MKIFNLLVGGAPENLPDNLNDFEGDWIGVDRGALKLIEMGLIPEVAVGDFDSVNDQEFKEIEANAKQVIKLDPVKDDTDTESGLKYALDHDPRAHIRVLGISGGRLDHLLANVLMVLQDRFRMFAEQIELIDRQNNIRFFNSGKHTVDKLEGFKYLSFIPLTQIDVLTLDDEKYELHNAMVSNARAYVSNEFIDSKATVYLSNGLVAVIQSKD”, for which the protein production result is recorded as “failed”.

The record behind these values is a protein production outcome set (Wang et al. 2014).
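Also: failed if final PepcDB status was selected cloned or expressed and not failed if soluble or beyond.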
